Molecular target: T1, biotinylated human transferrin (human, UniProt P02787 20-698, biotinylated (sites not given))
T1 construct: Used at 0.05-0.1 mg/mL as the labelling reagent; detected with R-phycoerythrin-conjugated streptavidin; also called Sigma-aldrich T3915-5MG
Assay: flow cytometry, E. coli C43 (DE3) cells expressing Nlobe_HpuA with SLAM1 or SLAM2, labelled with biotinylated human transferrin

T1 sequence (P02787 20-698 limits assumed): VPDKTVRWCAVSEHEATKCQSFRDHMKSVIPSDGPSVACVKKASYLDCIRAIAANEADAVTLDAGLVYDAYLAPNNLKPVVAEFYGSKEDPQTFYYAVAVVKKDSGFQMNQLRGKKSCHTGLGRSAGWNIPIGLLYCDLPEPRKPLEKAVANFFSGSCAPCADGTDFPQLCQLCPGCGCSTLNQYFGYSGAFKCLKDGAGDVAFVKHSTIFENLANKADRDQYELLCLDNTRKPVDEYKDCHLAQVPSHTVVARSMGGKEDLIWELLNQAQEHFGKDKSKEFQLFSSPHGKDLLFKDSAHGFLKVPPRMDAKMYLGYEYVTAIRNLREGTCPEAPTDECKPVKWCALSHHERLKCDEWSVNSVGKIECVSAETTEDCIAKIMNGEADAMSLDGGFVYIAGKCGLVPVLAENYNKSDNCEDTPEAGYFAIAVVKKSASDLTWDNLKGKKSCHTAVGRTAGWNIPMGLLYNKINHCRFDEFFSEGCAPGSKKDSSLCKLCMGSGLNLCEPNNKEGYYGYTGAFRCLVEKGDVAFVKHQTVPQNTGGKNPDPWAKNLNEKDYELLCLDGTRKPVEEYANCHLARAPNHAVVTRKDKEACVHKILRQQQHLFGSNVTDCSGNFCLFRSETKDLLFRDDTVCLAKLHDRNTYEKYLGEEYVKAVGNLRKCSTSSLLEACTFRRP

B1: TbpB N-lobe fused to HpuA (N. meningitidis) (other)
chain: CLGGGGSFDLDSVETVQDMHSKPKYEDEKSQPESQQDVSENSGAAYGFAVKLPRRNAHFNPKYKEKHKPLGSMDWKKLQRGEPNSFSERDELEKKRGSSELIESKWEDGQSRVVGYTNFTYVRSGYVYLNKNNIDIKNNIVLFGPDGYLYYKGKEPSKELPSEKITYKGTWDYVTDAMEKQRFEGLGSAAGGDKSGALSALEEGVLRNQAEASSGHTDFGMTSEFEVDFSDKTIKGTLYRNNRITQNNSENKQIKTTRYTIQATLHGNRFKGKALAADKGATNGSHPFISDSDSLEGGFYGPKGEELAGKFLSNDNKVAAVFGAKQKDKKDAGGGVAEPHVPVSIPTATPLPTGEVKLSDDNSKIENINTADTGSTSGISIQQRKYEVESYGIKREEKAFIFQTPGGAQYALSSYADPITVSYSSPDFKIPDRHAGQRLADGSRIFICCSESGATSYAEITKQDYMKFGAWIGPNGEIDLFAGGFPVGKTPKPKYSWGNTEPETKGKGKITYQVWGIRVRNRQFVTSSYTPPKSGSYYGTLANTPVLSFITANFNSNKLAGEIRGNSDYGPSVKIENATINSLSFSGTATSGGKTGNLEGKFFGKFNGYRDTETSIGGKITFDGDRSLDTVFGGVSYKKELENNTDTSTTHLTK
notes: also called Nlobe-HpuA
binding result: binds
